Results taken from the Human Domainome abundance scans (Beltran et al. 2025).
± gives the uncertainty stated by the source.

B1: POU domain, class 4, transcription factor 1, residues 266 to 347; numbered along this chain, Q01851 (parent)
chain: RELEAFAERFKQRRIKLGVTQADVGSALANLKIPGVGSLSQSTICRFESLTLSHNNMIALKPILQAWLEEAEGAQREKMNKP

Variants of: B1
Experiment: abundance fitness (aPCA) (normalised: wild type 0, dead -1); higher = more abundant; growth selection in yeast, the domain comes from the species named
Conditions: Homo sapiens

| Variant | abundance fitness |
| --- | --- |
| RELEAFAERFKQRRIKLGVTQADVGSALANLKIPGVGSLSQSTICRFESLTLSHNNMIALKPILQAWLEEQEGAQREKMNKP [A71Q] | -0.051 ± 0.074 |
| RELEAFAERFKQRRIKLGVTQADVGSALANLKIPGVGSLSQSTICRFESLTLSHNHMIALKPILQAWLEEAEGAQREKMNKP [N56H] | 0.004 ± 0.091 |
| RELEAFAERFKQRRIKLKVTQADVGSALANLKIPGVGSLSQSTICRFESLTLSHNNMIALKPILQAWLEEAEGAQREKMNKP [G18K] | -0.167 ± 0.21 |
| RELEAFAERFKQNRIKLGVTQADVGSALANLKIPGVGSLSQSTICRFESLTLSHNNMIALKPILQAWLEEAEGAQREKMNKP [R13N] | -0.156 ± 0.062 |
| RELEAFAERFKQRRIKLGVTQADVGSALAWLKIPGVGSLSQSTICRFESLTLSHNNMIALKPILQAWLEEAEGAQREKMNKP [N30W] | -0.144 ± 0.064 |
| RELEAFAERFKQRRIILGVTQADVGSALANLKIPGVGSLSQSTICRFESLTLSHNNMIALKPILQAWLEEAEGAQREKMNKP [K16I] | -0.104 ± 0.037 |
| RELEAFAERFKQRRIKLGVTQADVGSALANLKIPGVGSLSQSTICRFESLTLSHNNMIALKPILQAWLEEAEGAQREFMNKP [K78F] | 0.003 ± 0.23 |
| RELEAFAERFKQRRIKLGVTQADVGSALANLKIPGVGSLSQSTICRFESLTLSHNNMIALKPILQAWLEEAEGAQMEKMNKP [R76M] | 0.044 ± 0.032 |
| RELEAFAERFKQRRIKLGVTQADVGSALANLKIPGVGSLSQSTICRFESLTLSHNNMIALKPILQAWLEEAEGAQEEKMNKP [R76E] | 0.016 ± 0.028 |
| RELEAFAERFKQRRIKLGVTQADVGSALANLKIPGVGSLSQSTPCRFESLTLSHNNMIALKPILQAWLEEAEGAQREKMNKP [I44P] | -0.864 ± 0.22 |
| RELEAFAERFKQRRIKLGVTQADVGSALANLKIPGVGSLSQSTRCRFESLTLSHNNMIALKPILQAWLEEAEGAQREKMNKP [I44R] | -0.999 ± 0.12 |
| RELEAFAERFSQRRIKLGVTQADVGSALANLKIPGVGSLSQSTICRFESLTLSHNNMIALKPILQAWLEEAEGAQREKMNKP [K11S] | -0.104 ± 0.065 |
| RKLEAFAERFKQRRIKLGVTQADVGSALANLKIPGVGSLSQSTICRFESLTLSHNNMIALKPILQAWLEEAEGAQREKMNKP [E2K] | -0.069 ± 0.04 |
| RELEAFAERFKQRRIKLGVTQADVGSALANLKIPGVGSLSQSTICRFESLTLSHNNMIALKPILQAWLEEAEGAQREKMCKP [N80C] | 0.064 ± 0.06 |
| RELEAFAERFKQRRIKLGVTQADVGSALANLKIPGVGSLSQSTICRFESLTLSHNNMIALKPILQAWLEEAEGAQREKMAKP [N80A] | 0.117 ± 0.039 |
| RELEAFAERFKQRRIKLGVTQADVGSALANLKIPGVGSLSQSTICRFESLTLSHNNMIALKPILQAWLEEAEGAQREKMNAP [K81A] | 0.148 ± 0.075 |
| RELEAFAERFKQRRIKLGVTQADVGSALANLKIPGVGSLSQSTICRFESLTLSHNNMIALKPILQAWLEEAEGAQREKMNHP [K81H] | -0.432 ± 0.39 |

| Variant | abundance fitness |
| --- | --- |
| RELEAFAERFKQRRIKLGVTQADVGSALANLKIPGVGSLSQSTICRFESLTLSHNNMIALKPILQAWLEPAEGAQREKMNKP [E70P] | -0.657 ± 0.052 |
| RELEAFAERFKQRRIKLGVTQADVGSALANLKIPGVGSLSQSTICRFESLTLSHNNMIALKPILQAWLEFAEGAQREKMNKP [E70F] | -0.198 ± 0.044 |
| RELEAFAERFKQRRIKLGVTQADVGSALANLKIPGVGSLSQSTICRFESLTLSHNNMIALKPILQAWLEAAEGAQREKMNKP [E70A] | -0.07 ± 0.027 |
| RELEAFAERFKQRRIKLGVTQADVGSALANLKIPGVGSLSQSTICRFESLTLSHNNMWALKPILQAWLEEAEGAQREKMNKP [I58W] | -0.107 ± 0.057 |
| RELEAFAERFKQRRIKLGVTQADVGSAWANLKIPGVGSLSQSTICRFESLTLSHNNMIALKPILQAWLEEAEGAQREKMNKP [L28W] | -0.555 ± 0.033 |
| REAEAFAERFKQRRIKLGVTQADVGSALANLKIPGVGSLSQSTICRFESLTLSHNNMIALKPILQAWLEEAEGAQREKMNKP [L3A] | -0.162 ± 0.042 |
| RELEAFAERFKQRRIKLGVTQADVGSALANLKIPGVGSLSQSTICRFESLTLSHNNMIRLKPILQAWLEEAEGAQREKMNKP [A59R] | -0.051 ± 0.037 |
| RELEAFAERFKQRRIKLGVTHADVGSALANLKIPGVGSLSQSTICRFESLTLSHNNMIALKPILQAWLEEAEGAQREKMNKP [Q21H] | 0.006 ± 0.1 |
| RELEAFAERFKQRRIKLGVTQADVGSALANLKIPGVGSLSQSTICRFESLTLSHNNMIALKPILQAWLEEAEGDQREKMNKP [A74D] | -0.027 ± 0.039 |
| RELEAFAERFKQRRIKLGVTQADVGSALANLKIPGVGSLSQSTICRFESLTLSHNNMIALKPILQAWLEEAEGAIREKMNKP [Q75I] | -0.051 ± 0.088 |
| RELEAFAERFKQRRIKLGVTQADVGSALANLKIPGVGSLSQSTICRFESLTLSHNNMIALKPILQAWLEEAEGAYREKMNKP [Q75Y] | -0.085 ± 0.074 |
| RELEAFAERFKQRRIKLGVTQADVGSALANLKIPGVGSLSQSTICRFESLTLSHNNMIALMPILQAWLEEAEGAQREKMNKP [K61M] | -0.1 ± 0.062 |
| RELEAFAERFKQRRIKLGVTQADVGSALANLKIPGVGSLSQSTICRFESLTLSHNNMIALKPILQAWQEEAEGAQREKMNKP [L68Q] | -0.568 ± 0.095 |
| RELEAFAERFKQRRIKLGVTQADVGSALANLKIPGQGSLSQSTICRFESLTLSHNNMIALKPILQAWLEEAEGAQREKMNKP [V36Q] | -0.252 ± 0.17 |
| RELEAFAERFKQRRIKLGVTQADVGSALANLKIPGIGSLSQSTICRFESLTLSHNNMIALKPILQAWLEEAEGAQREKMNKP [V36I] | 0.013 ± 0.13 |
| RELEAFAERFKQRRIKLGVTQADVGSALANLKIPGVLSLSQSTICRFESLTLSHNNMIALKPILQAWLEEAEGAQREKMNKP [G37L] | -0.121 ± 0.03 |
